According to publication PMC6530537 (2019):

Molecular target: CK2β (Homo sapiens, UniProt P67870)
Test: ITC

Sequence of CK2β (P67870 2-215): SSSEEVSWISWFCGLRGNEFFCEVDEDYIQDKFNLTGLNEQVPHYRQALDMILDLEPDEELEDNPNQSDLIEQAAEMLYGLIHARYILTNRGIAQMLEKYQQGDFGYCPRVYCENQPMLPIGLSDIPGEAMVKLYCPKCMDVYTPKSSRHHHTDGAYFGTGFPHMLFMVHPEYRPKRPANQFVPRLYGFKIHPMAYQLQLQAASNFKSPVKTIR

- Kd: 9 nM
B1: CK2α (protein)
chain: MSGPVPSRARVYTDVNTHRPREYWDYESHVVEWGNQDDYQLVRKLGRGKYSEVFEAINITNNEKVVVKILKPVKKKKIKREIKILENLRGGPNIITLADIVKDPVSRTPALVFEHVNNTDFKQLYQTLTDYDIRFYMYEILKALDYCHSMGIMHRDVKPHNVMIDHEHRKLRLIDWGLAEFYHPGQEYNVRVASRYFKGPELLVDYQMYDYSLDMWSLGCMLASMIFRKEPFFHGHDNYDQLVRIAKVLGTEDLYDYIDKYNIELDPRFNDILGRHSRKRWERFVHSENQHLVSPEALDFLDKLLRYDHQSRLTAREAMEHPYFYTVVKDQARMGSSSMPGGSTPVSSANMMSGISSVPTPSPLGPLAGSPVIAAANPLGMPVPAAAGAQQ
